Measurements taken from PMC6985235.

Assays:
[1] = biological target: binding immunoglobulin protein (TvBip); experiment: co-immunoprecipitation with anti-HA antibody, Western blotting; conditions: three experiments
[2] = biological target: hydrogenosomal heat shock protein 70 (HdHSP70); experiment: as above; conditions: total lysate, three experiments
[3] = biological target: heat shock protein 72 (TvHSP72); experiment: as above; conditions: three experiments
Myb3 (endogenous) = experiment: as above; conditions: for ratio to parent: three experiments
TvMyb3IPhmw = experiment: as above; conditions: P100 fraction; three experiments
[4] = biological target: His-TvCyP2 (Trichomonas vaginalis) (UniProt A2DLL4); experiment: ITC

Substance | ratio to parent ([1]; total lysate) | ratio to parent ([2]; ** p < 0.01) | ratio to parent ([3]; total lysate, ** p < 0.01) | ratio to parent (Myb3 (endogenous); total lysate, ** p < 0.01) | ratio to parent ([1]; P15 fraction) | ratio to parent ([1]; P100 fraction) | ratio to parent ([1]; total lysate, ** p < 0.01) | ratio to parent [2] | ratio to parent (TvMyb3IPhmw) | ratio to parent ([3]; P100 fraction, * p < 0.05) | ratio to parent ([3]; S100 fraction, ** p < 0.01) | other: relative signal intensity (Myb3 (endogenous)) | ratio to parent (Myb3 (endogenous); P15 fraction, * p < 0.05) | ratio to parent (Myb3 (endogenous); P100 fraction, ** p < 0.01) | Kd [4] [µM]
HA-TvCyP1 (from UniProt A2DT06) R63A | 1 | 0.1 | 0.5 | 0.6 | – | – | – | – | – | – | – | – | – | – | –
HA-TvCyP2 (from UniProt A2DLL4) R75A | – | – | 1.6 | 0.4 | 1 | 1 | 0 | 0.9 | 1 | 0.7 | 0.6 | 0.1 | 0.7 | 0.5 | –
His-Myb3^53–180 (domain or fragment) | – | – | – | – | – | – | – | – | – | – | – | – | – | – | 55
